Our source for the Kd, koff and kon values is patent US20200010570A1.

In the assay the target is C1q (Fitzgerald, Cat. No. 32R-AC049) (UniProt P02745). Kind of assay: ForteBio, biotinylated antibody on SA chip, C1q from 200 nM.
Sequence of C1q (Fitzgerald, Cat. No. 32R-AC049) (P02745 23-245 limits assumed, chain 1 of 3): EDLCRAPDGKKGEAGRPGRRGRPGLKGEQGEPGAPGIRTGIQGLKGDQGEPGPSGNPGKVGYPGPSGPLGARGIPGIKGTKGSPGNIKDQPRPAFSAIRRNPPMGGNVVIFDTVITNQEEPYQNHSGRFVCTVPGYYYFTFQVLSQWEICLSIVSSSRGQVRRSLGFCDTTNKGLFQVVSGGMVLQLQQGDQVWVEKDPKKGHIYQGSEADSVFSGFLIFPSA
Sequence of C1q (Fitzgerald, Cat. No. 32R-AC049) (P02746 28-253 limits assumed, chain 2 of 3, further chain): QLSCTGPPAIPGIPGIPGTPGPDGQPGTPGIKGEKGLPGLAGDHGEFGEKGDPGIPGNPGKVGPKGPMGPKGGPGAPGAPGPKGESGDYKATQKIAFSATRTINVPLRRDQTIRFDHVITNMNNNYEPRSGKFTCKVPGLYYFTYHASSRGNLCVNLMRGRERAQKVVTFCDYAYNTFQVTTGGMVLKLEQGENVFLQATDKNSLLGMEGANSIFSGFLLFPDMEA
Sequence of C1q (Fitzgerald, Cat. No. 32R-AC049) (P02747 29-245 limits assumed, chain 3 of 3, further chain): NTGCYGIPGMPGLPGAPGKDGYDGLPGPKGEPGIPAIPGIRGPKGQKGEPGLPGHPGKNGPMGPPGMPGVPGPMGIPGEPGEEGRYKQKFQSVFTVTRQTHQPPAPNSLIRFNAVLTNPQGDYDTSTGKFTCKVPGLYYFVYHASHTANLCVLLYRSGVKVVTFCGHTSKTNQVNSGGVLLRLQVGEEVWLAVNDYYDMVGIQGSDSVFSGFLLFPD

“Tecentriq® (Atezolizumab, purchased from Roche) (antibody)” returned a Kd of 1.3 nM, a koff of 0.00176 s⁻¹ and a kon of 1.36e+06 M⁻¹ s⁻¹.
